# Data taken from US20240343803A1 (SHANDONG SIMCERE BIOPHARMACEUTICAL, published 2024).
# T1: Fusion protein of extracellular domain of human TIGIT and His-tag (human TIGIT ECD-his) (human)
# T1 chain: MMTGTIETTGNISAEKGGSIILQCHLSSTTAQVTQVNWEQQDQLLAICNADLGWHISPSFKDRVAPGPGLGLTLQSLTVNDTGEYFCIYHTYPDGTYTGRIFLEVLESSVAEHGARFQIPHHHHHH
# T2: full-length human TIGIT on CHO-K1 cells (CHO-K1 human TIGIT) (human, UniProt Q495A1 22-244)
# T2 construct: NCBI XP_024309156.1; entry includes the signal peptide; also called high expression strain 1D2; medium expression strain 2D10
# T2 sequence: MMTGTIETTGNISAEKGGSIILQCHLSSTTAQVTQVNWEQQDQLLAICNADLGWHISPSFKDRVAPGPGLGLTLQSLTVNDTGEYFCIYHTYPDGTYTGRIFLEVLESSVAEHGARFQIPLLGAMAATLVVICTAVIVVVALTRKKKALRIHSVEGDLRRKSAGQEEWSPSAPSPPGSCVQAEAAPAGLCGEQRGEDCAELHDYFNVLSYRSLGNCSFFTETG
# T3: human TIGIT ECD-mFc (fusion protein of extracellular domain of human TIGIT and mouse IgG2a Fc fragment) (human)
# T3 chain: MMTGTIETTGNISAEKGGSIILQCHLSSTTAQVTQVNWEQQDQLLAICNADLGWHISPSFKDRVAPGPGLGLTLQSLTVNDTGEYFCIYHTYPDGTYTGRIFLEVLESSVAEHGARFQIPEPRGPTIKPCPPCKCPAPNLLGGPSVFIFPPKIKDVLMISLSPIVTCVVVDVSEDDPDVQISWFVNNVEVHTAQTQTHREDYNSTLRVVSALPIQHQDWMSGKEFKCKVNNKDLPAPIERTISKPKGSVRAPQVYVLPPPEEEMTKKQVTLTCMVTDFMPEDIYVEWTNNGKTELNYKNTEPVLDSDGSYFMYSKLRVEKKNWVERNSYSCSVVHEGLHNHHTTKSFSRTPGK
# T4: human PVRIG-his (AcroBiosystems, Cat NO. PVG-H52H4) (human, UniProt Q6DKI7 41-171, limits assumed)
# T4 construct: treated as the same protein; also called human PVRIG-His protein; Human PVRIG-His, Acro C227P1-9ARF1-T4
# T4 sequence (looked up): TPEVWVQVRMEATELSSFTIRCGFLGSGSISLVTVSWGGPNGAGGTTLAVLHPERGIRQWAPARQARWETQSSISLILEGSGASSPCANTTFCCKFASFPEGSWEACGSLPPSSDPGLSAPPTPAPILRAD
# T5: human PVRIG-mFc protein (Acro, PVG-H5253) (human, UniProt Q6DKI7 41-171, limits assumed)
# T5 construct: bought reagent; also called PVRIG-ECD-mFc
# T5 sequence (looked up): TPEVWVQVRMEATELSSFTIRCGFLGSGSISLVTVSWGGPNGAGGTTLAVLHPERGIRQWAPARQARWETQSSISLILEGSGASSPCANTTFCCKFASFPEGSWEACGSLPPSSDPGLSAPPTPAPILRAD
# Assays:
# [1] = biological target: T1, Fusion protein of extracellular domain …; experiment: BIAcore; KD ratio, by the numbers to TIGIT-005-H2L1 of r33
# [2] = biological target: T2, full-length human TIGIT on CHO-K1 cells …; experiment: FACS, high expression strain
# Method: The collected cells were washed once with PBS (Hyclone, CAT #SH30256), resuspended to 2×10⁵/50 μL with 1% BSA-PBS. The antibodies were diluted to 80 nM with 1% BSA-PBS (diluted by 3-fold serial dilution for 12 concentration points). The 50 μL cells were then mixed with 50 μL diluted antibodies, and then incubated at 4° C. for 60 minutes. […] After washing twice with PBS, the cell samples were resuspended with 1% BSA-PBS, 100 μL/well and then analyzed by flow cytometry (BD, Canto II). […] [0298] (c) The effect of anti-TIGIT chimeric antibodies blocking the interaction between Bio-CD155-His and CHO-K1 human TIGIT high expression cell strains detected by FACS
# [3] = biological target: T3, human TIGIT ECD-mFc (fusion protein of …); experiment: FACS, competition: hTIGIT ECD-mFc to CHO-K1 CD155
# Method: The collected CHO-K1 CD155 cells were washed once with PBS (Hyclone, CAT #SH30256) and resuspended to 2×10⁵/40 μL with 1% BSA-PBS. The tested antibodies were diluted to 600 nM with 1% BSA-PBS (diluted by 2.5-fold serial dilution for 12 concentration points). The TIGIT ECD-mFc was diluted with 1% BSA-PBS to 6 μg/mL. The 40 μL cells were then mixed with 40 μL diluted antibodies and 40 μL diluted TIGIT ECD-mFc, and then incubated at 4° C. for 60 minutes. […] The cell samples were washed twice with PBS, resuspended to 100 μL/well with 1% BSA-PBS and then analyzed by flow cytometry (BD, Canto II).
# [4] = biological target: T2, full-length human TIGIT on CHO-K1 cells …; experiment: FACS, CHO-K1 human TIGIT high expression strain
# Method: The collected cells were washed once with PBS (Hyclone, Cat NO. SH30256), resuspended to 2×10⁵/50 μL with 1% BSA-PBS. The antibodies were diluted to 80 nM with 1% BSA-PBS (diluted by 3-fold serial dilution for 12 concentration points). The 50 μL cells were then mixed with 50 μL diluted antibodies, and then incubated at 4° C. for 60 minutes. […] After washing twice with PBS, the cell samples were resuspended with 1% BSA-PBS, 100 μL/well and then analyzed by flow cytometry (BD, Canto II).
# [5] = biological target: T4, human PVRIG-his (AcroBiosystems, Cat …); experiment: ELISA, coated human PVRIG-his
# [6] = biological target: T5, human PVRIG-mFc protein (Acro, …); experiment: competition FACS; blocked: human PVRIG-mFc binding to CHO-K1-CD112 cells
# Procedure, shortened: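 CHO-K1-CD112 cells stained with Zombie violet were added to the mixture for another 30 min at 4° C, and bound PVRIG-mFc was detected with PE goat anti-mouse IgG Fc (1:250) as mean fluorescence intensity on a BD Canto II. IC50 values were read off the resulting competition curve.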
binder,measurement,setting,value
"TIGIT-005-H2L1d (antibody, V domains shown, Humanized anti-TIGIT antibody with NG-site mutation in VL) VH: EVQLVQSGAEVKKPGASVKVSCKASGYAFTNYLIEWVRQAPGQRLEWMGVINPGSGGTNYKEKFKGRVTITADKSSSTAYMELSSLRSEDTAVYYCARGEYFFFDYWGQGTTVTVSS VL: DIVMTQSPDSLAVSLGERATINCKASQHVSNAVAWYQHKPGQSPKLLIYSASYRYTGVPDRFSGSGSGTDFTLTISSLQAEDVAVYYCQQHYNTPHTFGGGTKVEIK",Fold change vs chimeric antibodies (KD),[1],1.21 fold
"RG6058-hIgG1 (antibody, V domains shown, human IgG1 format by its name; also called Roche RG6058; control antibody RG6058) VH: EVQLQQSGPGLVKPSQTLSLTCAISGDSVSSNSAAWNWIRQSPSRGLEWLGKTYYRFKWYSDYAVSVKGRITINPDTSKNQFSLQLNSVTPEDTAVFYCTRESTTYDLLAGPFDYWGQGTLVTVSS VL: not shown",EC50,[2],0.673 nM
same,IC50,[3],0.566 nM
same,EC50 (read off the curve),[4],~0.6 nM
"SRF813-hIgG1 (antibody, V domains shown, human IgG1 format by its name) VH: QVQLVQSGAEVKKPGSSVKVSCKASGGTFSSAAISWVRQAPGQGLEWMGNIIPIVGIANYAQKFQGRVTITADESTSTAYMELSSLRSEDTAVYYCARDTGRGYTRHFWFDPWGQGTLVTVSS VL: DIQMTQSPSSLSASVGDRVTITCRASQSISSYLNWYQQKPGKAPKLLIYAASSLQSGVPSRFSGSGSGTDFTLTISSLQPEDFATYYCQQSDILYTFGGGTKVEIK",EC50 (read off the curve),[5],~0.05 nM
same,IC50 (read off the curve),[6],~1 nM
